Laboratory results reported in patent US20180346592A1 (MOGAM INSTITUTE FOR BIOMEDICAL RESEARCH, published 2018).

Tests used:
[1] = molecular target: T1, GPC3 on the surface of hepatic cancer cell lines (SK-Hep1-GPC3 transfectant, HepG2, Huh7, Hep3B, SNU398) (human, UniProt P51654 25-554); test: FACS, HepG2 cells, 1 ug antibody; lower right panel
T1 construct: Species is not restated for the cells (hepatic cancer cell lines, or SK-Hep1 transfected with pCMV/GPC3); also called glypican 3

[2] = molecular target: T1, GPC3 on the surface of hepatic cancer …; test: FACS, SK-Hep1-GPC3 cells, 1 ug antibody; lower right panel
Description: (§1) After detaching SK-Hep1-GPC3 cells by adding a TrypLE Express solution thereto, the detached SK-Hep1-GPC3 cells were put into a 50 mL tube and centrifuged at room temperature and 2000 rpm for 3 minutes to remove a culture medium, followed by washing with PBS once. The resultant was suspended using a FACS buffer, transferred to a round bottom tube, and centrifuged at room temperature and 2000 rpm for 3 minutes. A supernatant was removed, and the resultant was suitably dissolved using the FACS buffer so as to have a concentration of 4×10⁵ ea/mL. Then, a candidate antibody (1 μg) was added thereto at 4° C., and in an […] control group, a human IgG (1m, Sigma) was added instead of the candidate antibody. After 1 hour, the resultant was washed with the FACS buffer two times, a goat anti-human IgG antibody and FITC conjugated were added thereto at an amount of 1 μL per sample and bound thereto at 4° C. for 30 minutes. After collecting cells by centrifugation at 2000 rpm for 3 minutes, the cells were re-suspended by adding a fixation buffer (500 μL), and measured using a FACS calibur (FIG. 5).

[3] = molecular target: T1, GPC3 on the surface of hepatic cancer …; test: FACS, SK-Hep1-GPC3 #9 cells, 1 ug antibody; upper right panel
Description: as §1

[4] = molecular target: T1, GPC3 on the surface of hepatic cancer …; test: FACS, HepG2 cells, 1 ug antibody; upper right panel (Synthetic library)

Row | Mean, FL2-H [1] | Mean, FL2-H [2] | Mean, FL2-H [3] | Mean, FL2-H [4] | Binder
1 | 5.08 | 14.9 |  |  | clone GX206 (scFv, V domains shown, scFv library clone tested as culture supernatant) VH: QLQLQESGPGLVKPSETLSLTCTVSGGSISSSSYYWGWIRQPPGKGLEWIGSIYYSGSTYYNPSLKSRVTISVDTSKNQFSLKLSSVTAADTAVYYCARLGDYGGNGYYFDYWGQGTLVTVSS VL: QSVLTQPPSVSAASGQKVTVSCSGSSSNIGKNGVSWHQQLPGTAPKLLIYENNRRPSEIPDRFSGSKSGTSATLAITGLQTGDEADYYCGTWDSSLNAGVFGTGTKVTVLG
2 | 13.2 | 40.1 |  |  | clone GX099 (scFv, V domains shown, scFv library clone tested as culture supernatant) VH: EVQLVESGAEVKKPGASVKVSCKASGYTFTSYYMHWVRQAPGQGLEWMGIINPSGGSTSYAQKFQGRVTMTRDTSTSTVYMELSSLRSEDTAVYYCARYSSSPAKIDYWGQGTLVTVSS VL: QSVLTQPPSVSAAPGEKVIISCSGSSSNIGKYYVSWYQQLPGTAPKLLIYDNNKRPSGIPDRFSGSKSGTSATLGISGLQTGDEADYYCGTWDSSLNLVFGTGTKVTVLG
3 |  |  | 12.3 | 8.12 | clone GS009 (scFv, V domains shown, scFv library clone tested as culture supernatant) VH: EVQLLESGGGLVQPGGSLRLSCAASGFTFSNYSMSWVRLAPGKGLEWVSVISPSGGNTYYADSVKGRFTISRDNSKNTLYLQMNSLRAEHTAVYYCARYRVKQMLNQRSYSNAMDVWGQGTLVTVSS VL: QSVLTQPPSASGTPGQRVTISCTGSSSNIGNNYVSWYQQLPGTAPKLLIYDDSQRPSGVPDRFSGSKSGTSASLAISGLRSEDEADYYCGSWDASLSGYVFGGGTKLTVLG
4 |  |  | 5.32 | 8.76 | clone GS001 (scFv, V domains shown, scFv library clone tested as culture supernatant) VH: EVQLLESGGGLVQPGGSLRLSCAASGFTFSSYSMSWVRQAPGKGLEWVSGISPSGGNKYYADSVKGRFTISRDNSKNTLYLQMNSLRAEDTAVYYCARALLGCKSAYCYYAMDVWGQGTLVTVSS VL: QSVLTQPPSASGTPGQRVTISCTGSSSNIGSNAVNWYQQLPGTAPKLLIYADSKRPSGVPDRFSGSKSGTSASLAISGLRSEDEADYYCGSWDSSLSGYVFGGGTKLTVLG
5 |  |  | 3.94 | 11.3 | clone GS007 (scFv, V domains shown, scFv library clone tested as culture supernatant) VH: EVQLLESGGGLVQPGGSLRLSCAASGFTFSNYSMSWVRQAPGKGLEWVSVISHDGRSKYYADSVKGRFAISRDNSKNTLYLQMNSLRAEDTAVYYCAKFRVWKRTNAHSYANAMDVWGQGTLVTVSS VL: QSVLTQPPSASGTPGQRATISCTGSSSNIGSNSVSWYQQLPGTAPKLLIYANSNRPSGVPDRFSGSKSGTSASLAISGLRSEDEADYYCGTWDASLSAYVFGGGTKLTVLG
6 |  |  | 4.89 | 8.85 | clone GS008 (scFv, V domains shown, scFv library clone tested as culture supernatant) VH: EVQLLESGGGLVQPGGSLRLSCAASGFTFSNYAMSWVRQAPGKGLEWVSVISPDNGSTYYADSVKGRFTISRDNSKNTLYLQMNSLRAEDTAVYYCARARVHCRRDQCYSYGMDVWGQGTLVTVSS VL: QSVLTQPPSASGTPGQRVTISCTGSSSNIGSNNVTWYQQLPGTAPKLLIYANSQRPSGVPDRFSGSKSGTSASLAISGLRSEDEADYYCGAWDSSLNGYVFGGGTKLTVLG
7 |  |  | 4.98 | 11 | clone GS005 (scFv, V domains shown, scFv library clone tested as culture supernatant) VH: EVQLLESGGGLVQPGGSLRLSCAASGFTFSNYAMSWVRQAPGKGLEWVSVISPDSSSKYYADSVKGRFTISRDNSKNTLYLQMNSLRAEDTAVYYCARAAVRRYGPSPYYYYAMDVWGQGTLVTVSS VL: QSVLTQPPSASGTPGQRVTISCTGSSSNIGNNYVTWYQQLPGTAPKLLIYADSHRPSGVPDRFSGSKSGTSASLAISGLRSEDEADYYCATWDYSLSGYVFGGGTKLTVLG
8 |  |  | 27.5 | 12.2 | clone GS017 (scFv, V domains shown, scFv library clone tested as culture supernatant) VH: EVQLLESGGGLVQPGGSLRLSCAASGFTFSGYAMSWVRQAPGKGLEWVSGISPGDGSTYYADSVKGRFTISRDNSKNTLYLQMNSLRAEDTAVYYCARVARMCQGWRCSYADGMDVWGQGTLVTVSS VL: QSVLTQPPSASGTPGQRVTISCTGSSSNIGNNSVYWYQQLPGTAPKLLIYSDSHRPSGVPDRFSGSKSGTSASLAISGLRSEDEADYYCGTWDSSLSGYVFGGGTKLTVLG
9 | 12.6 | 62.9 |  |  | clone GX234 (scFv, V domains shown, scFv library clone tested as culture supernatant) VH: QVQLVQSGAEVKKPGASVKVSCKASGYTFTSYGISWVRQAPGQGLEWMGWISAYNGNTNYAQKLQGRVTMTTDTSTSTAYMELRSLRSDDTAVYYCARVGLGDFWSGDYYYYYYGMDVWGQGTTVTVSS VL: SSELTQDPAVSVALGQTVRITCQGDSLRSSYASWYHQKPGQAPVLVMYGKNNRPSGIPDRFSGSSSGNTASLTITGAQAEDEADYYCHSRDSTGSHPNWVFGGGTKLTVLG
10 | 5 | 9.91 |  |  | clone GX207 (scFv, V domains shown, scFv library clone tested as culture supernatant) VH: EVQLVQSGAEVKKPGASVKVSCKASGYTFTSYGISWVRQAPGQGLEWMGWISAYNGNTNYAQKLQGRVTMTTDTSTSTAYMELRSLRSDDTAVYYCAREGIAAAGYYYGMDVWGQGTTVTVSS VL: QSALTQPPSVSGSPGQSVTISCTGTSSDVGGYNRVSWYQQPPGTAPKLMIYEVSNRPSGVPDRFSGSKSGNTASLTISGLQAEDEADYYCSSYTSSTTYVFGTGTKVTVLG
11 |  |  | 22.9 | 6.5 | clone GS011 (scFv, V domains shown, scFv library clone tested as culture supernatant) VH: EVQLLESGGGLVQPGGSLRLSCAASGFTFSNYAMSWVRQAPGKGLEWVSGISPGGSSIYYADSVKGRFTISRDNSKNTLYLQMNSLRAEDTAVYYCARYAVYFLRSHGSYDYGMDVWGQGTLVTVSS VL: not shown
12 | 5.62 | 13.3 |  |  | clone GX119 (scFv, V domains shown, scFv library clone tested as culture supernatant) VH: EVQLVESGGGVVQPGRSLRLSCAASGFTFSSYGMHWVRQAPGKGLEWVAVIWYDGSNKYYADSVKGRFTISRDNSKNTLYLQMNSLRAEDTAVYYCARDRSWNYYGMDVWGQGTTVTVSS VL: not shown
13 | 3.49 | 10.2 |  |  | clone GX090 (scFv, V domains shown, scFv library clone tested as culture supernatant) VH: QVQLVQSGAEVKKPGASVKVSCKASGYTFTSYGISWVRQAPGQGLEWMGWISAYNGNTNYAQKLQGRVTMTTDTSTSTAYMELRSLRSDDTAVYYCARGSSFSGFDPWGQGTLVTVSS VL: QSVLTQPPSLSAAPGQKVTISCSGSSSNIGKNHVSWYQQFPGTAPKFLIYDNHRRPSGIPDRFSGSKSGTSATLDITGLQTGDEATYYCGTWDSSLSAVVFGGGTKLTVLG
14 | 9.81 | 37.8 |  |  | clone GX225 (scFv, V domains shown, scFv library clone tested as culture supernatant) VH: QVQLVQSGAEVKKPGASVKVSCKASGYTFTSYYMHWVRQAPGQGLEWMGIINPSGGSTSYAQKFQGRVTMTRDTSTSTVYMELSSLRSEDTAVYYCARESGPSGGMDVWGQGTTVTVSS VL: SYELTQPPSVSVSPGQTARITCSGDALPKQYAYWYQQKPGQAPVLVIYKDSERPSGIPERFSGSSSGTTVTLTISGVQAEDEADYYCSSYTSSSTRVVFGGGTKLTVLG
15 |  |  | 7.43 | 6.07 | clone GS013 (scFv, V domains shown, scFv library clone tested as culture supernatant) VH: EVQLLESGGGLVQPGGSLRLSCAASGFTFSNYAMSWVRQAPGKGLEWVSSISSGGGSTYYADSVKGRFTISRDNSKNTLYLQMNSLRAEDTAVYYCARKKSQFDYWGQGTLVTVSS VL: not shown
16 | 6.12 | 13.7 |  |  | clone GX253 (scFv, V domains shown, scFv library clone tested as culture supernatant) VH: EVQLVESGGGLVKPGGSLRLSCAASGFTFSDYYMSWIRQAPGKGLEWVSYISSSGTTIYYADSVKGRFTISRDNAKKSLYLQMNSLRAEDTAVYYCARVRDSSGFWGRGTLVTVSS VL: QSVLTQPPSVSAAPGQKVTISCSGSSSNIGNNYVSWYQQLPGTAPKLLIYDNNKRPSGIPDRFSGSKSGTSATLGITGLQTGDEADYYCGTWDSSLSAWVVGGGTKLTVLG
17 | 5.71 | 13.3 |  |  | clone GX248 (scFv, V domains shown, scFv library clone tested as culture supernatant) VH: QMQLVQSGAEVKKPGASVKVSCKASGGTFSSYAISWVRQAPGQGLEWMGGIIPIFGTANYAQKFQGRVTITADESTSTAYMELSSLRSEDTAVYYCARVRGTGPRGGTFDYWGQGTLVTVSS VL: QSVLTQPPSVSAAPGQKVTISCSGSSSNIGNNYVSWYQQLPGTAPKLLIYDNNKRPSGIPDRFSGSKSGTSATLGITGLQTGDEADYYCGTWDSSLSAWVFGGGTKLTVLG
18 |  | 5.95 |  |  | clone GX118 (scFv, V domains shown, scFv library clone tested as culture supernatant) VH: QLQLQESGPGLVKPSETLSLTCTVSGGSISSSSYYWGWIRQPPGKGLEWIGSIYYSGSTYYNPSLKSRVTISVDTSKNQFSLKLSSVTAADTAVYYCARLRSFADNYVWGSYASYYFDYWGRGTLVTVSS VL: QSVVTQPPSVSAAPGQRVTISCSGSSSNIGNNFVSWHQQLPGTAPKLLIYDNNKRPSGIPDRFSGSKSGTSATLGITGLQTGDEADYYCGTWDNSLGTGVFGGGTKLTVLG
